The text below walks through data of patent EP3632934A1 (F. Hoffmann-La Roche AG, dated 2020).

For the test, the target named is T1, human OX40 (Sino Biological Inc) (human, UniProt P43489 29-216).
T1 construct: Bought soluble protein used as SPR analyte; also called huOX40
T1 sequence: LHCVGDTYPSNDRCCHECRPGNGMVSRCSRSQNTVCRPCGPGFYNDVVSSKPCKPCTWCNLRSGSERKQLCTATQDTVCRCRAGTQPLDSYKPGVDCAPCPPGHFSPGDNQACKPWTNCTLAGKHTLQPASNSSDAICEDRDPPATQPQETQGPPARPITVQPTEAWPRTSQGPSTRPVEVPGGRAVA
Description: SPR, Biacore; against parent 1A7.gr.1. (SPR reads the build-up and loss of mass on a sensor chip optically.)

B1: 1A7.gr.SGDS (antibody, V domains shown)
VH: EVQLVQSGAEVKKPGASVKVSCKASGYTFTDSYMSWVRQAPGQGLEWIGDMYPDSGDSSYNQKFRERVTITRDTSTSTAYLELSSLRSEDTAVYYCVLAPRWYFSVWGQGTLVTVSS
VL: DIQMTQSPSSLSASVGDRVTITCRASQDISNYLNWYQQKPGKAPKLLIYYTSRLRSGVPSRFSGSGSGTDFTLTISSLQPEDFATYYCQQGHTLPPTFGQGTKVEIK
Turning to B1, the “fold loss of binding affinity against 1A7.gr.1” value was found to be 2 fold.
